B1: AVR10 (AAV-binding protein No. 143; AVR8g + Val381Ala, Ile382Val) (receptor)
chain: MGSAGESDQITLPKNEVQLNAYVLQEPPKGETCTYDWQLITHPRDYSGEMEGEHSQILKLSNLTPGLYEFKAVVEGQNAHSEGYVNVTVEPEPRKNRPPIAIVSPQFQEISLPTTSTVIDGSQSTDDDKIVQYHWEELKGPLREEKISEDTAILKLSKLVPGNYTFRLTVVDSDGATDSTTANLTVNKAVDHHHHHH
B2: AAV-binding protein No. 149 (AVR8g + Val394Ile, Asn395Ser, Thr426Ala) (receptor)
chain: MGSAGESDQITLPKNEVQLNAYVLQEPPKGETCTYDWQLITHPRDYSGEMEGEHSQILKLSNLTPGLYEFKVIVEGQNAHSEGYISVTVEPEPRKNRPPIAIVSPQFQEISLPTTSAVIDGSQSTDDDKIVQYHWEELKGPLREEKISEDTAILKLSKLVPGNYTFRLTVVDSDGATDSTTANLTVNKAVDHHHHHH
B3: AAV-binding protein No. 150 (AVR8g + Val396Ala, Gln441Arg, Lys448Glu) (receptor)
chain: MGSAGESDQITLPKNEVQLNAYVLQEPPKGETCTYDWQLITHPRDYSGEMEGEHSQILKLSNLTPGLYEFKVIVEGQNAHSEGYVNATVEPEPRKNRPPIAIVSPQFQEISLPTTSTVIDGSQSTDDDKIVRYHWEELEGPLREEKISEDTAILKLSKLVPGNYTFRLTVVDSDGATDSTTANLTVNKAVDHHHHHH
B4: AAV-binding protein No. 58 (AVR2 + Ile319Phe) (receptor)
chain: MGSAGESVQFTLPKNEVQLNAYVLQEPPKGETCTYDWQLITHPRDYSGEMEGKHSQILKLSKLTPGLYEFKVIVEGQNAHSEGYVNVTVKPEPRKNRPPIAIVSPQFQEISLPTTSTVIDGSQSTDDDKIVQYHWEELKGPLREEKISEDTAILKLSKLVPGNYTFSLTVVDSDGATNSTTANLTVNKAVDHHHHHH
B5: AAV-binding protein No. 67 (AVR2 + Pro337Gln) (receptor)
chain: MGSAGESVQITLPKNEVQLNAYVLQEPQKGETCTYDWQLITHPRDYSGEMEGKHSQILKLSKLTPGLYEFKVIVEGQNAHSEGYVNVTVKPEPRKNRPPIAIVSPQFQEISLPTTSTVIDGSQSTDDDKIVQYHWEELKGPLREEKISEDTAILKLSKLVPGNYTFSLTVVDSDGATNSTTANLTVNKAVDHHHHHH
B6: AAV-binding protein No. 73 (AVR2 + Val396Ala) (receptor)
chain: MGSAGESVQITLPKNEVQLNAYVLQEPPKGETCTYDWQLITHPRDYSGEMEGKHSQILKLSKLTPGLYEFKVIVEGQNAHSEGYVNATVKPEPRKNRPPIAIVSPQFQEISLPTTSTVIDGSQSTDDDKIVQYHWEELKGPLREEKISEDTAILKLSKLVPGNYTFSLTVVDSDGATNSTTANLTVNKAVDHHHHHH
B7: AAV-binding protein No. 62 (AVR2 + Leu328Pro) (receptor)
chain: MGSAGESVQITLPKNEVQPNAYVLQEPPKGETCTYDWQLITHPRDYSGEMEGKHSQILKLSKLTPGLYEFKVIVEGQNAHSEGYVNVTVKPEPRKNRPPIAIVSPQFQEISLPTTSTVIDGSQSTDDDKIVQYHWEELKGPLREEKISEDTAILKLSKLVPGNYTFSLTVVDSDGATNSTTANLTVNKAVDHHHHHH
B8: AAV-binding protein No. 60 (AVR2 + Lys323Glu) (receptor)
chain: MGSAGESVQITLPENEVQLNAYVLQEPPKGETCTYDWQLITHPRDYSGEMEGKHSQILKLSKLTPGLYEFKVIVEGQNAHSEGYVNVTVKPEPRKNRPPIAIVSPQFQEISLPTTSTVIDGSQSTDDDKIVQYHWEELKGPLREEKISEDTAILKLSKLVPGNYTFSLTVVDSDGATNSTTANLTVNKAVDHHHHHH
B9: AAV-binding protein No. 70 (AVR2 + Val383Ala) (receptor)
chain: MGSAGESVQITLPKNEVQLNAYVLQEPPKGETCTYDWQLITHPRDYSGEMEGKHSQILKLSKLTPGLYEFKVIAEGQNAHSEGYVNVTVKPEPRKNRPPIAIVSPQFQEISLPTTSTVIDGSQSTDDDKIVQYHWEELKGPLREEKISEDTAILKLSKLVPGNYTFSLTVVDSDGATNSTTANLTVNKAVDHHHHHH
B10: AAV-binding protein No. 61 (AVR2 + Leu328Gln) (receptor)
chain: MGSAGESVQITLPKNEVQQNAYVLQEPPKGETCTYDWQLITHPRDYSGEMEGKHSQILKLSKLTPGLYEFKVIVEGQNAHSEGYVNVTVKPEPRKNRPPIAIVSPQFQEISLPTTSTVIDGSQSTDDDKIVQYHWEELKGPLREEKISEDTAILKLSKLVPGNYTFSLTVVDSDGATNSTTANLTVNKAVDHHHHHH
B11: AAV-binding protein No. 63 (AVR2 + Tyr331His) (receptor)
chain: MGSAGESVQITLPKNEVQLNAHVLQEPPKGETCTYDWQLITHPRDYSGEMEGKHSQILKLSKLTPGLYEFKVIVEGQNAHSEGYVNVTVKPEPRKNRPPIAIVSPQFQEISLPTTSTVIDGSQSTDDDKIVQYHWEELKGPLREEKISEDTAILKLSKLVPGNYTFSLTVVDSDGATNSTTANLTVNKAVDHHHHHH
B12: AAV-binding protein No. 69 (AVR2 + Thr350Ser) (receptor)
chain: MGSAGESVQITLPKNEVQLNAYVLQEPPKGETCTYDWQLISHPRDYSGEMEGKHSQILKLSKLTPGLYEFKVIVEGQNAHSEGYVNVTVKPEPRKNRPPIAIVSPQFQEISLPTTSTVIDGSQSTDDDKIVQYHWEELKGPLREEKISEDTAILKLSKLVPGNYTFSLTVVDSDGATNSTTANLTVNKAVDHHHHHH
B13: AAV-binding protein No. 71 (AVR2 + His389Asp) (receptor)
chain: MGSAGESVQITLPKNEVQLNAYVLQEPPKGETCTYDWQLITHPRDYSGEMEGKHSQILKLSKLTPGLYEFKVIVEGQNADSEGYVNVTVKPEPRKNRPPIAIVSPQFQEISLPTTSTVIDGSQSTDDDKIVQYHWEELKGPLREEKISEDTAILKLSKLVPGNYTFSLTVVDSDGATNSTTANLTVNKAVDHHHHHH
B14: AAV-binding protein No. 64 (AVR2 + Val332Ala) (receptor)
chain: MGSAGESVQITLPKNEVQLNAYALQEPPKGETCTYDWQLITHPRDYSGEMEGKHSQILKLSKLTPGLYEFKVIVEGQNAHSEGYVNVTVKPEPRKNRPPIAIVSPQFQEISLPTTSTVIDGSQSTDDDKIVQYHWEELKGPLREEKISEDTAILKLSKLVPGNYTFSLTVVDSDGATNSTTANLTVNKAVDHHHHHH
B15: AAV-binding protein No. 72 (AVR2 + Val394Ala) (receptor)
chain: MGSAGESVQITLPKNEVQLNAYVLQEPPKGETCTYDWQLITHPRDYSGEMEGKHSQILKLSKLTPGLYEFKVIVEGQNAHSEGYANVTVKPEPRKNRPPIAIVSPQFQEISLPTTSTVIDGSQSTDDDKIVQYHWEELKGPLREEKISEDTAILKLSKLVPGNYTFSLTVVDSDGATNSTTANLTVNKAVDHHHHHH
B16: AAV-binding protein No. 76 (AVR2 + Asn492Asp) (receptor)
chain: MGSAGESVQITLPKNEVQLNAYVLQEPPKGETCTYDWQLITHPRDYSGEMEGKHSQILKLSKLTPGLYEFKVIVEGQNAHSEGYVNVTVKPEPRKNRPPIAIVSPQFQEISLPTTSTVIDGSQSTDDDKIVQYHWEELKGPLREEKISEDTAILKLSKLVPGNYTFSLTVVDSDGATNSTTADLTVNKAVDHHHHHH
B17: AAV-binding protein No. 66 (AVR2 + Leu333Pro) (receptor)
chain: MGSAGESVQITLPKNEVQLNAYVPQEPPKGETCTYDWQLITHPRDYSGEMEGKHSQILKLSKLTPGLYEFKVIVEGQNAHSEGYVNVTVKPEPRKNRPPIAIVSPQFQEISLPTTSTVIDGSQSTDDDKIVQYHWEELKGPLREEKISEDTAILKLSKLVPGNYTFSLTVVDSDGATNSTTANLTVNKAVDHHHHHH
B18: AAV-binding protein No. 68 (AVR2 + Tyr(Cys)342Arg) (receptor)
chain: MGSAGESVQITLPKNEVQLNAYVLQEPPKGETRTYDWQLITHPRDYSGEMEGKHSQILKLSKLTPGLYEFKVIVEGQNAHSEGYVNVTVKPEPRKNRPPIAIVSPQFQEISLPTTSTVIDGSQSTDDDKIVQYHWEELKGPLREEKISEDTAILKLSKLVPGNYTFSLTVVDSDGATNSTTANLTVNKAVDHHHHHH
notes: Cys342 of AVR2 replaced by Arg
B19: AAV-binding protein No. 59 (AVR2 + Ile319Asn) (receptor)
chain: MGSAGESVQNTLPKNEVQLNAYVLQEPPKGETCTYDWQLITHPRDYSGEMEGKHSQILKLSKLTPGLYEFKVIVEGQNAHSEGYVNVTVKPEPRKNRPPIAIVSPQFQEISLPTTSTVIDGSQSTDDDKIVQYHWEELKGPLREEKISEDTAILKLSKLVPGNYTFSLTVVDSDGATNSTTANLTVNKAVDHHHHHH
B20: AAV-binding protein No. 77 (AVR2 + Leu321Pro, Ile409Val) (receptor)
chain: MGSAGESVQITPPKNEVQLNAYVLQEPPKGETCTYDWQLITHPRDYSGEMEGKHSQILKLSKLTPGLYEFKVIVEGQNAHSEGYVNVTVKPEPRKNRPPVAIVSPQFQEISLPTTSTVIDGSQSTDDDKIVQYHWEELKGPLREEKISEDTAILKLSKLVPGNYTFSLTVVDSDGATNSTTANLTVNKAVDHHHHHH
B21: AAV-binding protein No. 65 (AVR2 + Val332Glu) (receptor)
chain: MGSAGESVQITLPKNEVQLNAYELQEPPKGETCTYDWQLITHPRDYSGEMEGKHSQILKLSKLTPGLYEFKVIVEGQNAHSEGYVNVTVKPEPRKNRPPIAIVSPQFQEISLPTTSTVIDGSQSTDDDKIVQYHWEELKGPLREEKISEDTAILKLSKLVPGNYTFSLTVVDSDGATNSTTANLTVNKAVDHHHHHH
B22: AAV-binding protein No. 74 (AVR2 + Ser476Gly) (receptor)
chain: MGSAGESVQITLPKNEVQLNAYVLQEPPKGETCTYDWQLITHPRDYSGEMEGKHSQILKLSKLTPGLYEFKVIVEGQNAHSEGYVNVTVKPEPRKNRPPIAIVSPQFQEISLPTTSTVIDGSQSTDDDKIVQYHWEELKGPLREEKISEDTAILKLSKLVPGNYTFGLTVVDSDGATNSTTANLTVNKAVDHHHHHH

For one experiment, the target named is T1, VLP2 (virus-like particles of AAV2) (AAV2, UniProt P03135 1-735; P03135 1-598; P03135 1-533).
T1 construct: Empty AAV2 capsid; background says about 60 protein molecules, VP1:VP2:VP3 = 1:1:10; Immobilised on the ELISA plate
T1 sequence (P03135 whole entry, chain 1 of 3): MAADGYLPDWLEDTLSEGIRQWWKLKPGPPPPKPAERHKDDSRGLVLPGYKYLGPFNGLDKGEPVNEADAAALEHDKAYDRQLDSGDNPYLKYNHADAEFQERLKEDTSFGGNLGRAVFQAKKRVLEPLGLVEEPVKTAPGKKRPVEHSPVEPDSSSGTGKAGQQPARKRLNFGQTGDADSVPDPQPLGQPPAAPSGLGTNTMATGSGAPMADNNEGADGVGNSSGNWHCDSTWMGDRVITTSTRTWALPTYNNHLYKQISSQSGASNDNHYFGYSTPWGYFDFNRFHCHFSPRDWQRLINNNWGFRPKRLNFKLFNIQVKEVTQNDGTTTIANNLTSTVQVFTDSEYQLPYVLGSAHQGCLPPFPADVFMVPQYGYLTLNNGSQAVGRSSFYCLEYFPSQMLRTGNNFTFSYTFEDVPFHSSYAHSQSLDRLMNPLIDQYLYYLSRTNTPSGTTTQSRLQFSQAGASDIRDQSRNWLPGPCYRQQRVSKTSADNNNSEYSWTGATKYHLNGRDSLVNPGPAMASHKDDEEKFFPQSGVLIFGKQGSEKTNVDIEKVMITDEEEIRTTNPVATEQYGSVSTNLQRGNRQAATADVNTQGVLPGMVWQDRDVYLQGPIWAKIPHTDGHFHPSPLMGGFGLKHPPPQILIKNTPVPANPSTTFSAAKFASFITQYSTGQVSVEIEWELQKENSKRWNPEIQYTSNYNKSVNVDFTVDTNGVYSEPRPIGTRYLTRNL
T1 sequence (P03135 139-735, tags left off, chain 2 of 3): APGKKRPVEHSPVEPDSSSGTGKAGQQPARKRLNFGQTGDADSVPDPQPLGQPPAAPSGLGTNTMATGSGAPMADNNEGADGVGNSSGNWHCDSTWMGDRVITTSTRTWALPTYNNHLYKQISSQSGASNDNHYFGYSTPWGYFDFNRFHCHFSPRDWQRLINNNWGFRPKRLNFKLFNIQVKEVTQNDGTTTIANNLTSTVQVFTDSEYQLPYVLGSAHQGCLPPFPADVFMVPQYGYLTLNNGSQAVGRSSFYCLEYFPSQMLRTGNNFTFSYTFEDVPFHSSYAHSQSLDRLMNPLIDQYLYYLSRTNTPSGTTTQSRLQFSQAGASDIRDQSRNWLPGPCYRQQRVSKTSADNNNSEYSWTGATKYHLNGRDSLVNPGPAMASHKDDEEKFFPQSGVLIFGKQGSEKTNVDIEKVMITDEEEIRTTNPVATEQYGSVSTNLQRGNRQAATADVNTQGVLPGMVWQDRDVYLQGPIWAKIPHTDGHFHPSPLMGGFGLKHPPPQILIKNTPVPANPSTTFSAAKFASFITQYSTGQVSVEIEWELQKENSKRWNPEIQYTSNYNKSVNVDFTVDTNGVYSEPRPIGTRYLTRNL
T1 sequence (P03135 203-735, chain 3 of 3): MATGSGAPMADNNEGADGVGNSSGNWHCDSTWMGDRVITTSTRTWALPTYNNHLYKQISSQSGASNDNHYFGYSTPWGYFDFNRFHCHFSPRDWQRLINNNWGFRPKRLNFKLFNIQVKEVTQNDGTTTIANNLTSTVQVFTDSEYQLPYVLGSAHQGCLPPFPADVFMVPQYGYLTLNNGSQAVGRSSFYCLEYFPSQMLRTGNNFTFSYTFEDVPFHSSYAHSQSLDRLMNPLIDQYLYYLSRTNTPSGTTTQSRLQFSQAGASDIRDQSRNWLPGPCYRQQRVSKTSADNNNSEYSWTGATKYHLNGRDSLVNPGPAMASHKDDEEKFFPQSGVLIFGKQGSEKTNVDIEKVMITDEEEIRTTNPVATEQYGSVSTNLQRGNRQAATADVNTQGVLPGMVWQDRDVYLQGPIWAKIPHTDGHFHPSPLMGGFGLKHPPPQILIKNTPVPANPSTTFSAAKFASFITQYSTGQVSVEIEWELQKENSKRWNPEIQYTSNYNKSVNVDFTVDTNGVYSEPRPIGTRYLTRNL
As to the kind of experiment: ELISA on VLP2; binding after pH 10.0 41.2°C 15 min / untreated.
Take B1: the “Residual activity [%]” value was 90.3%.

Take B2: the “Residual activity [%]” value was found to be 70.5%.

Regarding B3, the “Residual activity [%]” value was found to be 49.7%.

A further experiment deals with T1, VLP2 (virus-like particles of AAV2). As to the kind of experiment: ELISA on VLP2; binding after pH 3.0 51.1°C 15 min / untreated.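 Further: binding of the heat-treated AAV-binding protein to VLP2, expressed as a percentage of the binding of the same protein without heating.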 Background: An ELISA detects its analyte on a solid surface through an enzyme-linked reagent.
Method: The residual activity was calculated by dividing the binding activity of AAV-binding protein to VLP2 when the heat treatment was performed by the binding activity of AAV-binding protein to VLP2 when the heat treatment was not performed.
For B4, the “Residual activity [%]” value is 73.9%.

On to B5, for which the “Residual activity [%]” value came to 45.6%.

On to B6, for which the “Residual activity [%]” value was 48.9%.

As for B7, the “Residual activity [%]” value was found to be 38.8%.

B8: the “Residual activity [%]” value is 80.2%.

Turning to B9, the “Residual activity [%]” value was found to be 32.8%.

With B10, the “Residual activity [%]” value is 43.5%.

As for B11, the “Residual activity [%]” value was determined as 43.1%.

Regarding B12, the “Residual activity [%]” value came out at 49.9%.

Consider B13, for which the “Residual activity [%]” value stood at 71.9%.

With B14, the “Residual activity [%]” value was 41.4%.

With B15, the “Residual activity [%]” value was determined as 32%.

For B16, the “Residual activity [%]” value worked out at 36.4%.

Turning to B17, the “Residual activity [%]” value was found to be 31.8%.

On to B18, for which the “Residual activity [%]” value was 70.4%.

On to B19, for which the “Residual activity [%]” value was 26.1%.

On to B20, for which the “Residual activity [%]” value is 34.3%.

Regarding B21, the “Residual activity [%]” value worked out at 29.4%.

Turning to B22, the “Residual activity [%]” value came out at 63.4%.
